Columns and labels:
[1] = target: T1, PMN-derived human elastase activity (Homo sapiens, UniProt P08246); assay: 125I-Fibronectin assay with stimulated PMN as source of elastase activity; type: cell-based; settings: HLE equivalent of 4 nM, FIG. 3
T1 construct: Some assays employed elastase activity derived from freshly prepared neutrophils (PMN); endogenous in cells; host or cells: freshly prepared, stimulated neutrophils (PMN)
T1 sequence (P08246 30-267): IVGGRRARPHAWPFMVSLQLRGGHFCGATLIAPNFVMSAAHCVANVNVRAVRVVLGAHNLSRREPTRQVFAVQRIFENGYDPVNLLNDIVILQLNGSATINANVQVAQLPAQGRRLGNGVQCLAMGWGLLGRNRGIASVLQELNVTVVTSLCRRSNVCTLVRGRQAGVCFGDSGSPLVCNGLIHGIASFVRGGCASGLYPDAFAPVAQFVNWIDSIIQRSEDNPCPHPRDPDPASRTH
Procedure: The data points represent the mean of several (n=3 to 9) replicates compared to the control that contained no inhibitor.
This assay is designed to model the degradation of connective tissue. The assay is carried out essentially as described by Campbell, et al. (J. Clin. Invest., 1982, 70:845-52). Briefly, purified human plasma fibronectin (fn) is radiolabeled with ^125 I using Enzymobeads and conventional procedures. The desalted is diluted with fn to yield ca. cpm/ug. This material is further diluted with pH 9.6 barbital buffer and 200 ul (30 ug fn, 50000 cpm) is pipetted into the wells of a flat bottomed 96 well microtiter plate. The plates are dried for about 24 hours at 37° C. and unbound fn is removed with 2 washes of phosphate buffered saline (PBS). The plates are stored at 4° C. and are stable for at least 2 weeks.
For an assay each coated well is filled with a total volume of 200 μl. All measurements are carried out at optimal pH and buffer conditions. After addition of proteolytic activity with or without inhibitor the plate is incubated at 37° C. for 3 hours. The well contents are centrifuged and a 100 μl aliquot is counted for 1251gamma radiation. Some assays employed elastase activity derived from freshly prepared neutrophils (PMN). ln this case an activating agent to stimulate the PMN is present in the well and the PMN is added last. […]

bovine trypsin = target: T2, bovine trypsin (Bos taurus, UniProt P00760); assay: Trypsin assay (spectrophotometric, N-Benzoyl-L-arginine p-nitroanilide substrate); type: biochemical; settings: inhibitor/protease ratio between about 10/1 and 50/1
T2 sequence (P00760 24-246): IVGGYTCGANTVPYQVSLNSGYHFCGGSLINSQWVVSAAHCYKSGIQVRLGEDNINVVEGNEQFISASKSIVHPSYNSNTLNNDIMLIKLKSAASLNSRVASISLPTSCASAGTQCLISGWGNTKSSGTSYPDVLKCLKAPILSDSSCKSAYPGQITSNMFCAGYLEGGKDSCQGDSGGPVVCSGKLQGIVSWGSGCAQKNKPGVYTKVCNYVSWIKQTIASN
Protocol: (§1) The inhibitory activity of the polypeptides of the present invention can be easily assayed using in vitro assays. In these types of spectrophotometric assays the activity of the serine protease is measured toward an appropriate p-nitroanilide substrate in the presence and absence of the peptide inhibitor. The enzyme catalyzed hydrolysis of the peptide p-nitroanilide substrate produces p-nitroanaline which results in an increase in absorbance which is monitored in the range of 405 to 410 nm. The rate of increase in absorbance is a measure of the enzymatic activity and the decrease in this rate relative to a suitable control is used to ascertain inhibition. The general assay procedure and details of the particular assays employed in the examples are provided in the Appendix following the examples. It is also possible to test the polypeptides in a functionally oriented assay that emulates in vivo conditions. Such an inhibition assay for elastase is also described in the Appendix.
(§2) Generalized Protocol Spectrophotometric Assays:
(§3) (1) Pipette 100 μl of enzyme solution into a disposable polystyrene cuvette (1 cm optical path length).
(§4) (2) Add (1900-X) μl of bufferto the cuvette, where X is the volume of test solution in microliters that is added in the next step.
(§5) Add X μl of test solution to the cuvette, where X ranges from 0 μl for the control to a maximum of about 500 μl. Incubate the solution for a period of 1 to 5 minutes at ambient temperature.
(§6) (4) Add 100 μl of substrate solution to the cuvette. Mix the contents by covering the cuvette with a piece of paraffin film and repeatedly inverting for a period of 5 to 15 seconds.
(§7) (5) Record the change in absorbance for about 5 minutes at either 405 or 410 nm, depending on the assay, with a spectrophotometer equipped with a suitable recording device.
(§8) The percent inhibition is calculated from the formula [formula] where (ΔA/min) is the initial rate of absorbance change.
(§9) (7) For more accurate quantitative determinations temperature control of the cuvette holders and the reagent solutions can be instituted.
(§10) (8) The test solution can be crude oxidized peptide prepared as described above, fractions from a chromatographic separation or purified polypeptides.
(A) Buffer Solution - Triethanolamine buffer consisting of 200 mM triethanolamine, 20 mM CaCl2, pH 7.8
(B) Substrate solution - Dissolve 50 mg of N-Benzoyl-L-arginine p-nitroanilide in 50 ml of water. Sonicate for 5 to 10 minutes to completely dissolve the solid material.
(C) Enzyme solution - Dissolve 1 mg of bovine trypsin in 10 ml of 0.001N HCl stored on ice during the assay.
(D) Test Solution - See general protocol, number 8.
Procedure: Use the above solutions in the general protocol described above.

bovine chymotrypsin = bovine chymotrypsin (Bos taurus, UniProt P00766); assay: Chymotrypsin assay (spectrophotometric, p-nitroanilide substrate); type: biochemical; settings: inhibitor/protease ratio between about 10/1 and 50/1
Protocol: as §1, §2, §3, §4, §5, §6, §7, §8, §9, §10
(A) Buffer solution - triethanolamine buffer- See trypsin assay.
(B) Substrate Solution - Dissolve 25 mg of 3-carbomethoxypropionyl-L-arginyl-L-prolyl-L-tyrosine p-nitroanilide (Product No. S-2586, KabiVitrum AB, Stockholm, Sweden) in 23.6 ml of water
(C) Enzyme solution - Dissolve 1 mg of bovine chymotrypsin in 4 ml of 0.001N HCl. Prepare the final dilution by combining 0.1 ml of the stock chymotrypsin solution and 10 ml of 0.001N HCl. Store on ice or at 4° C.
Procedure: Use the above solutions in the general protocol
(2) See note 1 of the cathepsin G assay.
(3) 0.1M Tris-HCl, pH 7.8, 20 mM CaCl2, 0.05% triton X-100 can be substituted for the triethanolamine buffer.

In the case of “RVCPVILMKCKKDSDCLAECVCLEHGYCG (RVCPVILMKCKKDSDCLAECVCLEHGYCG) [Peptide 8]”, the “inhibition of 125I fibronectin degradation” value [1] is reported as “nearly the same inhibitory profile against purified human elastase (HE) and PMN-derived HE activity”, the “Inhibitory Activity Trypsin” value (bovine trypsin) is reported as “- (Represents less than 10% inhibition)” and the “Inhibitory Activity Chymotrypsin” value (bovine chymotrypsin) is reported as “- (Represents less than 10% inhibition)”.
